Experimental data taken from patent publication US20170002094A1 (Takeda / Millennium, published 2017).
Where two headings read alike, the source gives them in different places.

B1: DX-2930 (antibody, human IgG1, kappa, V domains shown)
VH: EVQLLESGGGLVQPGGSLRLSCAASGFTFSHYIMMWVRQAPGKGLEWVSGIYSSGGITVYADSVKGRFTISRDNSKNTLYLQMNSLRAEDTAVYYCAYRRIGVPRRDEFDIWGQGTMVTVSS
VL: DIQMTQSPSTLSASVGDRVTITCRASQSISSWLAWYQQKPGKAPKLLIYKASTLESGVPSRFSGSGSGTEFTLTISSLQPDDFATYYCQQYNTYWTFGQGTKVEIKR

Assays:
[1] = target: T1, human plasma kallikrein (active form) (human, UniProt P03952 20-638)
[2] = target: T1, human plasma kallikrein (active form); assay: cell-based or functional assay

T1 sequence (P03952 20-638 limits assumed): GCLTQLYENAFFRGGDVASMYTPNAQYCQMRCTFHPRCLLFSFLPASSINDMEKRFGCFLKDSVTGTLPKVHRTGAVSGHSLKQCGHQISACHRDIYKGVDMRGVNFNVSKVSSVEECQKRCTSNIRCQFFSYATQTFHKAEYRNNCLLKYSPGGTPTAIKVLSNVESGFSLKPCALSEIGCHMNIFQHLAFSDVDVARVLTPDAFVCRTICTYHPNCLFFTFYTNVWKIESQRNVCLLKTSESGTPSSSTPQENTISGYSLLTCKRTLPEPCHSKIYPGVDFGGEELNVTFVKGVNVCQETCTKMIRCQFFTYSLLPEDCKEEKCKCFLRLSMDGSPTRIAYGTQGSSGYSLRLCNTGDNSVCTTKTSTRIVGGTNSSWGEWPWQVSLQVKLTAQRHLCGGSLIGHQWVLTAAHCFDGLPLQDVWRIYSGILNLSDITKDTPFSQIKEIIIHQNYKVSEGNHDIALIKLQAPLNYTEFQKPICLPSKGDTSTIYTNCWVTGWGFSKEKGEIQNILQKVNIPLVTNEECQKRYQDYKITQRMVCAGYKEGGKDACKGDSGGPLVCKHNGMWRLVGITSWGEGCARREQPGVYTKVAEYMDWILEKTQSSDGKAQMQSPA

| Molecule | IC50 (read off the curve) [1] | IC50 (read off the curve) [2] |
| --- | --- | --- |
| ecallantide (designed binder) | 70 nM | – |
| B1 | – | ~70 nM |
